Measured values published in a protein production outcome set (Wang et al. 2014).

Experiment: label from the status in PepcDB records

Row | Sequence | protein production
1 | MTDGTTDGLNKAAVFICHCSGNISEHVDINTVKKTLKAEGFSVYDYEYLCSSQGQALIKKKISEGHVDRVVIGSCTPSKHGTLFKKCIQETGLNRAGLEIANLREQCAWVHPDREGATEKALSLLKAKLKRLENIEPLEDIKVDIAQQVLVIGGGIAGITAALNLADNGVPTFLVEKDSSIGGQMAKIGKIFSPDKLAEECAMCSLSPLMNEVAAHPRITLLTWTEVEKLSGSAGNFTVRLKKKPRYVKDNCIACGKCSRVCPVSVEDEFNCGYMDKKAISLRFSQSVPKVYFIDPDSCLRLKGENCGKCAEACKTGAIDFSQKEEIIELNVGAVVVATGFEEYDVSQKPQYGYGIFENVLTQMELARVLGINGPTKGELLRISDFSKASSDPAPSTCDSRCESSSDHPFEVETPERIVMIQCVGSRDEKEGGNRYCSRYCCMAALKHASLIKKRYPKTEITICYIDMRAFGFYENYYRAVQETGVNFVRGRPAEVIEKPDKSLVVRVEDTLSQKIKEIPADMVVLSAAMVPSPGTKKIASVLNLSQDESGFIKERHSKLKPVDCSLDGIFVCGTAQSPKDVTDTIAQAGLAAVRARAFITDSPKVLDNEIAAINQLLCTRCGECLKCPFDALSINENGRVVLDPLICTGCGYCTELCREGAVQIAGFTKSQLKAELEGVLEEGDVLGFVNSGISSLTCDNIGNSVLTYPSSVKLIKVPTCLIVDRDLVLHAFRHGASSVLFVEDPPDSPRAEVIYPLTVSHFEKLKEELGDSGKRIHFKKAYVPNIKGLAGTFTSLAREGEMIK | failed
2 | ASRDLLKEFPQPKNLLNSVIGRALGISHAKDKLVYVHTNGPKKKKVTLHIKWPKSVEVEGYGSKKIDAERQAAAAACQLFKGWGLLGPRNELFDAAKYRVLADRFG | not failed
3 | MKADDSRFFSFLKDRIGLDVTSVGEAIIERALRQRAKAANCADSDDYWHLLISSPQEQQALIEAVIVPETWFFRYPESFVTLGMLARERIASLAGVRPLRILSLPCSTGEEPYSIAMALFDAGVDARQFKVDAVDISPVSIAKAVHGIYGKNSFRGSDLSYRERFFSAITDGFEVADEIRACVNFQPGNLLDPKLASQVPYDIVFCRNLVIYFDRPTQQRVFQVLKQLTREDGLLFIGPAEGNLLAGIGMRSIGIAQSFAFRHAPAEAAAPAQVQAAAPIAPRPVVEAPARSPAPTPRPAARTSAAFAPLAKPAAAAGNSEVSALLDTIAGLANEGKSAEARAACERYLQQHEPVAQVFYWLGLLSEVEGAVVQAQGFYRKALYLQPQHRESLAQLAALLAAQGDSAGARRLQDRAARGANKQGNH | failed
4 | MVYKNILVGLDGSSQADNAFKVACGLANALSADLHPIWIVNRDRGMDSSFGVNEDFYRDQYHQVQDKLVSYVEDAKKAGLKVTGEALVGNIKLVLANEYPKEHGIDLIVLGNTGLNTVEKLVVGSHTSYVIRNSACDVLVVK | failed
5 | MSQFSTVWVLSDVLSPLPELMGGASSLGQSINVFTFNDEQSIAAFKLGATAVFQLEGKPDDRIMEDYAQSIVETIKSHSDAGLVLLPNTRRGKLFAARLGHRLAAVVSNDAQSLSTQNDTLVAKHMVYGGLAFSDETLTTPYCVVTASTGAFDVASETQATGTAQKVAWIAPSQSIICQSIQ | failed
6 | HSFVVLVIGESARKHNYALYGYQKPTTPRLSKRLADNELTLFNATSCATYTTASLECILDSSFKNNAYENLPTYLTKAGIKVFWYSANDGEKNVKVTSYLKNYELIQKCPNCEAIAPYDESLLYNLPDLLKEHSNENVLLILHLAGSHGPNYDNKVPLNFRVFKPYCSSADLSSCSKESLINAYDNTIFYNDYLLDKIISMLENAKQPALMIYLSDHGESLGEEAFYLHGIPKSIAPKEQYEIPFIVYAN | failed
7 | QKSVRVGISFDISEQKEGEALFEIISQNVTDVIWVYDLKLNRFRYISPSVEAMRGLPKEEAEAMSLEETLTPSSYQRAMQILEGERLRLSNPSHREIKIFSEFFDQYTHDGEVIETEVTARVVQDEG | failed
8 | MSITLITAAPGAGKTIFAVWNIIKPAVEADRVVYTAGIPELKLPAISLSYSQVKRWADRELVEVENPSGIPIPDDEKPSRLQNITEGALIVIDEVQYLWPASGSREPGEDIKYLTKHRHHGLEFVLITQAPQLIHKNVLAVVDKHIHMLSDWHGRKRYEWPEYCATVRATSSKLKAVSQRYELPKEAYGLYRSASMHI | failed
9 | MSFSRHIGVTMIDVVDLSRLQFALTAMYHFLFVPLTLGMAFLLAIMESMYVMTNKQIYKDMTKFWGKLFGINFALGVATGLTMEFQFGTNWSYYSHYVGDIFGAPLAIEALVAFFLESTFVGLFFFGWDRLSKRQHLAVTWLVALGSNFSALWILIANGWMQNPVGADFNFETMRMEMVSFSEVVLNPVAQVKFVHTVASGYTCGAMFILGISSYYLLKGRDIAFARRSFAIAASFGIAAILSTIVLGDESGYELGEVQKVKLAAIEAEWHTEPAPAAFTLFGVPNQETMHTDYAIKIPYVMGIIATRSFDEQVTGLRDLRDEHVERIRGGMYAYELLEKLRAGDKSEENMTAFDEVKGDLGYGLLLKRYTDNVVDATEEQIQAAADDSIPTVWPLFWSFRIMVACGFIMLFVFGAAFIQTCRQKIEQKQWILKAALLSIPLPWIAIEAGWFVAEYGRQPWAVGEILPVHVAASALTAGEIWTSLFAILALYTVFLIAEVYLMLKFARKGPSSLKTGRYHFEQNADSVEDKVSRQVEA | failed
10 | MSLRKEPYLLVFGASVVDVFGFSKASYRPYNSTPGHVKISFGGVCRNIAENMARVGVNTNFMSILGNDEHGKSIVEHSKKIGYHMDDSMVIEGGSTPTYLAILDENGEMVSAIADMKSIGAMNTDFIDSKREIFENAEYTVLDSDNPEIMEYLLKNFKDKTNFILDPVSAEKASWVKHLIKDFHTIKPNRHEAEILAGFPITDTDDLIKASNYFLGLGIKKVFISLDADGIFYNDGVSCGKIKATEVDVKNVTGAGDSFVAGLGYGYMNKMPIEDIVKFAMTMSNITISHEETIHPDMALDTVLAKLEKTTWEEEKYDLNEGHHHHHH | not failed
11 | MTTPEGGARKPRIGIMGEFSAGKSTLSNLLLGQRILPEQVTATRLPPVWIVQGDKPAQRAALDGSLHPMSLVDLEEISLEETLYVKIGIDAPVLDECDLIDFPGISDPNMPSEVWERMLAEVDSVLWCTHATQAWRQSEAAAWGMVPEAVRQRSLLLITRFDKLTTPLDKLRVQTRVARETEGLFAGVCPISLTEALAAAPDSPEWEASGAETFADALEAVVRAAACGGLPEAMPAQTQLTAPAAPEPAEPSTSAPQPAPGRVMPRRVRPKGETRTPRPSARPQAADQDLSALRREMQET | failed
12 | MGITRKYIANLKDLPTRVQDENDCTSEPFTKPRLCCKMVNKIRNTLVSTETFLQKENITLDTYKRIIRDLVIHLDRVTTKVFVNSLPYNVMDDLGLQECEAFVLKWSEELRKLQSEYRNHLDQISNIERLRRSLNVCLKTREDQIQKVQKEFQWFINILKSLPKSSVCQDGFARIELLNLYRQWKKGQLISMLPIMDFIMKTLLKEKDSILKRKLQPKSA | failed
13 | MNYAEKKKNWIKLGIFALFAGGILAYIGISNADIHWGGFISMMIFFAFTYYLGAFYAAKKSNSFSDMIVAKRSMPFFVGMVTMAATWVGGGYINGTAESTYSDGLIWAQAPWGYALSLIIGGIFFARKMRRHQFMTIIDPLEQRFGKRMAGVLYIPALLGELFWSAAILTALGTTFGMILNIDFQTSIILSAMIAIAYTVAGGMWAVAFTDVFQMIVILLGLFLVVPFVLSNVGALDSVWANYRHDFGSSANLLPPLDGWKNPDWGNLFWNWWDNALLLIFGGIAWQVYFQRVLSAKSESAAMWQSIIAGVICIIAAIPCVIIGAAGNSTDWSLFGASAPDNPAMILPQTLAYLTPGIIAGLGLGAIAAAVMSSMDSSILSASSMAAWNIYRPLIKPKATQKQLQKVVKRSIILFGAGAAVIALNVKSVYTLWYLASDLVYCILFPQLTMALFYKRANLYGSIAGFAVAVILRLGGGEPAFGIPPLLPYPMIEDGTVLFPFRTLAAVTAFMTIFAVSELTQRKCPPKQLVLPQEKQKDDRAA | failed
14 | MLGGVIVVKKAIAALGIGAVAVSVSSINASALEKGTVTASALNIRSGPSSDCDKVAKLYKGKTVEILEKSNGWYKVRVSSSVVGWGSAKYISTSGSSEGTSSQNNSTSSGTTISGNGKVNVSSRLNVRSGAGTNYSLVGKANNGDVVKLLEQSNGWYKIKLSNGVTGWASSQYISKTSEDVGTNNSSNSNSTNNSDKKPSSEESIEGKNGKVTSAVSLNVRSGPGTSYSIIGKLNGGDVVELKAKSNGWYKVKLSSGTIGWVSASYISETNEDTKEKPNSSSNQNSQSNSNSKPSFTGNSDKSTAKGSTIVDFAYTLIGIPYQWGASGPDKFDCSGFTQYVFKHSVGVSIPRVSREQANFGSAISMGNYAPGDLVYFDTDGDGTTNHVGIYVGNSKFIHCSGTQTNPNKVKVDNLTSSYWSKVLLGARRFV | failed
15 | MAKNDKINFSTPSGFPEFLPSEKRLELYLLDTIRRVYESYGFTPIETPAVERLEVLQAKGNQGDNIIYGLEPILPPNRQAEKDKSGDTGSEARALKFDQTVPLAAYIARHLNDLTFPFARYQMDVVFRGERAKDGRFRQFRQCDIDVVGREKLSLLYDAQMPAIITEIFEAVNIGDFVIRINNRKVLTGFFQSLNISETQIKSCISIIDNLEKIGEAKVKLELEKEGINPEQTQKIIDFVKIDGSVDDVLDKLKHLSQTLPESEQFNLGVSELETVITGVRNLGVPDKRFCIDLAIARGLNYYTGTVYETTLIGHEALGSICSGGRYEELVGTFIGEKMPGVGISIGLTRLISRLLKAGILNTLPPTPAQVVVVNMQDELMPTYLKVSQQLRQAGLNVITNFEKRQLGKQFQAADKQGIRFCVIIGADEAAAQKSSLKDLQSGEQVEVALADLAEEIKRRLT | not failed
16 | ATITHQEKLLTVDTTAHPFLKALGGHEGTDIFPLFMDPYNGLMVMRASFAPGLTLPLHFHTGTVHMYTISGCWYYTEYPGQKQTAGCYLYEPGGSIHQFNTPRDNEGQTEVIFMLSGCNVNFTQDGTYLGLSDAGVIKNWVDRAIREQDNGLRYIAAAVPTYAA | not failed
17 | KTPADNIETADLSASVPTRPAEPERKTLADYGGYPSALDAVKQKNDAAVAAYLENAGDSAMAENVRNEWLKSLGARRQWTLFAQEYAKLEPAGRAQEVECYADSSRNDYTRAAELVKNTGKLPSGCTKLLEQAAASGLLDGNDAWRRVRGLLAGRQTTDARNLAAALGSPFDGGTQGSREYALLNVIGKEARKSPNAAALLSEMESGLSLEQRSFAWGVLGHYQSQNLNVPAALDYYGKVADRRQLTDDQIEWYARAALRARRWDELASVISHMPEKLQKSPTWLYWLARSRAATGNTQEAEKLYKQAAATGRNFYAVLAGEELGRKIDTRNNVPDAGKNSVRRMAEDGAVKRALVLFQNSQSAGDAKMRRQAQAEWRFATRGFDEDKLLTAAQTAFDHGFYDMAVNSAERTDRKLNYTLRYISPFKDTVIRHAQNVNVDPAWVYGLIRQESRFVIGAQSRVGAQGLMQVMPATAREIAGKIGMDAAQLYTADGNIRMGTWYMADTKRRLQNNEVLATAGYNAGPGRARRWQADTPLEGAVYAETIPFSETRDYVKK | failed
18 | IQRSIERALDFRKEVQRLREESDGWFFDIWQPEAVDKAECWPVAPGEDWHGFKDADADHMYLDPVKVTILTPGMDEQGNMDEEGIPAALVAKFLDERGVVVEKTGPYNLLFLFSIGIDKTRAMGLLRGLTEFKRAYDLNLRVKNMLPDLYAEDPDFYRNMRIQDLAQGIH | failed
19 | MHALYITHPQVKIDPAVPVPEWGLSERGAERAREASRLPWAKALRRIVSSAETKAIETAHMLAETSGAAIEIIEAMHENDRSATGFLPPPEFEKAADWFFAHPEESFQGWERAIDAQARIVEAVKAVLDRHDARQPIAFVGHGGVGTLLKCHIEGRGISRSKDQPAGGGNLFRFSIAEFSLAAASPTCDWTAMETWQG | not failed
20 | MDVEDYITLFLSLWIIASALAVKSVDVFLTLTLIGLLITLEVGGLFLSKEQKENLQPLIEILLLVFAVIVVKKVYEVLSG | failed
